Laboratory results as given in patent US20230416329A1, “A PEPTIDE WITH DISULFIDE BONDS AND INHIBITORY ACTIVITY AGAINST SERINE PROTEASES, DERIVED HYBRID PEPTIDES THEREOF, AND USES THEREOF” (INSTITUTE OF MATERIA MEDICA , CHINESE ACADEMY OF MEDICAL …, priority 2020, published 2023).

Experiments:
[1] = target: bovine trypsin (bovine), P00760; assay: cell-based or functional assay
PCSK9 protein = PCSK9 protein (UniProt Q8NBP7); assay: PCSK9-LDLR in vitro binding assay kit, OD450/540; peptide 50 µM, PCSK9 75 ng/mL; inhibition of PCSK9 binding to LDLR

bovine trypsin (bovine), P00760, sequence (P00760 24-246): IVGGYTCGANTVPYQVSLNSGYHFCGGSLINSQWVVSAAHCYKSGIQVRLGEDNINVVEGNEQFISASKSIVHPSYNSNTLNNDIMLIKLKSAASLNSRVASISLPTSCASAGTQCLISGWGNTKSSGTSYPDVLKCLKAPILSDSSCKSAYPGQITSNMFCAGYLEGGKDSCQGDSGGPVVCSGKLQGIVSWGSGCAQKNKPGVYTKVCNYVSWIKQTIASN

residual trypsin activity at 0.0000098 µM BT1 [1] [%]	residual trypsin activity at 0.000098 µM BT1 [1] [%]	residual trypsin activity at 0.00098 µM BT1 [1] [%]	residual trypsin activity at 0.02439 µM BT1 [1] [%]	residual trypsin activity at 0.0488 µM BT1 [1] [%]	residual trypsin activity at 0.098 µM BT1 [1] [%]	residual trypsin activity at 0.98 µM BT1 [1] [%]	residual trypsin activity at 9.76 µM BT1 [1] [%]	Inhibitory rate (%) (PCSK9 protein)	Binder
102	102	101	69.6	24.1	3.3	0	0	–	GRCTKSIPPICFPD (modifications not checked) [BT1]
–	–	–	–	–	–	–	–	15.8	GTNEALDNNCGRATKSIPPICFTVFTS [PCSK9_13]
